{"source": "the FLAb antibody collection", "note": "“And” between values parts separate entries of the source, which are not always exact repeats. Identical values can stand only once."}
{"test": "patients with anti-drug antibodies; higher = more immunogenic"}
{"protein": "unnamed (protein) chain 1: EVQLVESGGGLVQPGGSLRLSCAASGYTFTSYNMHWVRQAPGKGLEWVGAIYPGNGDTSYNQKFKGRFTISVDKSKNTLYLQMNSLRAEDTAVYYCARVVYYSNSYWYFDVWGQGTLVTVSS chain 2: DIQMTQSPSSLSASVGDRVTITCRASSSVSYMHWYQQKPGKAPKPLIYAPSNLASGVPSRFSGSGSGTDFTLTISSLQPEDFATYYCQQWSFNPPTFGQGTKVEIK", "patients with anti-drug antibodies": "1%"}
{"protein": "unnamed (protein) chain 1: EVQLVQSGPGLVQPGGSVRISCAASGYTFTNYGMNWVKQAPGKGLEWMGWINTYTGESTYADSFKGRFTFSLDTSASAAYLQINSLRAEDTAVYYCARFAIKGDYWGQGTLLTVSS chain 2: DIQMTQSPSSLSASVGDRVTITCRSTKSLLHSNGITYLYWYQQKPGKAPKLLIYQMSNLASGVPSRFSSSGSGTDFTLTISSLQPEDFATYYCAQNLEIPRTFGQGTKVELK", "patients with anti-drug antibodies": "40%"}
{"protein": "unnamed (protein) chain 1: EVQLVESGGGLVQPGGSLRLSCAASGYTFTSYWLHWVRQAPGKGLEWVGMIDPSNSDTRFNPNFKDRFTISADTSKNTAYLQMNSLRAEDTAVYYCATYRSYVTPLDYWGQGTLVTVSS chain 2: DIQMTQSPSSLSASVGDRVTITCKSSQSLLYTSSQKNYLAWYQQKPGKAPKLLIYWASTRESGVPSRFSGSGSGTDFTLTISSLQPEDFATYYCQQYYAYPWTFGQGTKVEIK", "patients with anti-drug antibodies": "11.9%"}
{"protein": "unnamed (protein) chain 1: QVQLVQSGAEVKKPGASVKVSCKASGYTFTSYWMHWVRQAPGQGLEWIGNINPSNGGTNYNEKFKSKATMTRDTSTSTAYMELSSLRSEDTAVYYCELMQGYWGQGTLVTVSS chain 2: DIVMTQSPLSNPVTLGQPVSISCRSSKSLLYKDGKTYLNWFLQRPGQSPQLLIYLMSTRASGVPDRFSGGGSGTDFTLKISRVEAEDVGVYYCQQLVEYPLTFGQGTKLEIK", "patients with anti-drug antibodies": "2.5%"}
{"protein": "unnamed (protein) chain 1: EVQLVQSGAEVKKPGESLKISCKGSGRTFTSYNMHWVRQMPGKGLEWMGAIYPLTGDTSYNQKSKLQVTISADKSISTAYLQWSSLKASDTAMYYCARSTYVGGDWQFDVWGKGTTVTVSS chain 2: EIVLTQSPGTLSLSPGERATLSCRASSSVPYIHWYQQKPGQAPRLLIYATSALASGIPDRFSGSGSGTDFTLTISRLEPEDFAVYYCQQWLSNPPTFGQGTKLEIK", "patients with anti-drug antibodies": "1%"}
{"protein": "unnamed (protein) chain 1: EVQLVESGGGLVQPGGSLRLSCAASGYTFIDYYMNWVRQAPGKGLEWVGDINLDNSGTHYNQKFKGRFTISRDKSKNTAYLQMNSLRAEDTAVYYCAREGVYHDYDDYAMDYWGQGTLVTVSS chain 2: DIQMTQSPSSLSASVGDRVTITCRTSQSLVHINAITYLHWYQQKPGKAPKLLIYRVSNRFSGVPSRFSGSGSGTDFTLTISSLQPEDFATYYCGQSTHVPLTFGQGTKVEIK", "patients with anti-drug antibodies": "4.7%"}
{"protein": "unnamed (protein) chain 1: EVKLVESGGGLVQPGGSLRLSCATSGFTFTDYYMNWVRQPPGKALEWLGFIGNKANGYTTEYSASVKGRFTISRDKSQSILYLQMNTLRAEDSATYYCTRDRGLRFYFDYWGQGTTLTVSS chain 2: QTVLSQSPAILSASPGEKVTMTCRASSSVTYIHWYQQKPGSSPKSWIYATSNLASGVPARFSGSGSGTSYSLTISRVEAEDAATYYCQHWSSKPPTFGGGTKLEIK", "patients with anti-drug antibodies": "0.5%"}
{"protein": "unnamed (protein) chain 1: EGQLVQSGGGLVHPGGSLRLSCAGSGFTFSSYGMHWVRQAPGKGLEWVSGIGTGGGTYSTDSVKGRFTISRDNAKNSLYLQMNSLRAEDMAVYYCARGDYYGSGSFFDCWGQGTLVTVSS chain 2: DIQMTQSPSSLSASVGDRVTITCRASQGISSWLAWYQQKPEKAPKSLIYAASSLQSGVPSRFSGSGSGTDFTLTISSLQPEDFATYYCQQYNSYPPTFGQGTKLEIK", "patients with anti-drug antibodies": "0%"}
{"protein": "unnamed (protein) chain 1: QVTLRESGPALVKPTQTLTLTCTFSGFSLSTSGMSVGWIRQPPGKALEWLADIWWDDKKDYNPSLKSRLTISKDTSKNQVVLKVTNMDPADTATYYCARSMITNWYFDVWGAGTTVTVSS chain 2: DIQMTQSPSTLSASVGDRVTITCKCQLSVGYMHWYQQKPGKAPKLLIYDTSKLASGVPSRFSGSGSGTEFTLTISSLQPDDFATYYCFQGSGYPFTFGGGTKLEIK", "patients with anti-drug antibodies": "1.1%"}
{"protein": "unnamed (protein) chain 1: QVQLVQSGAEVKKPGSSVKVSCKASGYAFSYSWINWVRQAPGQGLEWMGRIFPGDGDTDYNGKFKGRVTITADKSTSTAYMELSSLRSEDTAVYYCARNVFDGYWLVYWGQGTLVTVSS chain 2: DIVMTQTPLSLPVTPGEPASISCRSSKSLLHSNGITYLYWYLQKPGQSPQLLIYQMSNLVSGVPDRFSGSGSGTDFTLKISRVEAEDVGVYYCAQNLELPYTFGGGTKVEIK", "patients with anti-drug antibodies": "6% and 6.6%"}
{"protein": "unnamed (protein) chain 1: EVQLVESGGGLVQPGGSMRLSCVASGFPFSNYWMNWVRQAPGKGLEWVGEIRLKSNNYTTHYAESVKGRFTISRDDSKNSLYLQMNSLKTEDTAVYYCTRHYYFDYWGQGTLVTVSS chain 2: DIVMTQSPLSNPVTPGEPASISCRSSKSLLHSNGITYFFWYLQKPGQSPQLLIYQMSNLASGVPDRFSGSGSGTDFTLRISRVEAEDVGVYYCAQNLELPPTFGQGTKVEIK", "patients with anti-drug antibodies": "25% and 9.5%"}
{"protein": "unnamed (protein) chain 1: EVQLVESGGGLVQPGGSLRLSCAASGFNFNDYFMNWVRQAPGKGLEWVAQMRNKNYQYGTYYAESLEGRFTISRDDSKNSLYLQMNSLKTEDTAVYYCARESYYGFTSYWGQGTLVTVSS chain 2: DIQMTQSPSSLSASVGDRVTITCQASQDIGISLSWYQQKPGKAPKLLIYNANNLADGVPSRFSGSGSGTDFTLTISSLQPEDFATYYCLQHNSAPYTFGQGTKLEIK", "patients with anti-drug antibodies": "9.8%"}
{"protein": "unnamed (protein) chain 1: EVQLVESGGGLVQPGRSLRLSCAASGFTFNDYAMHWVRQAPGKGLEWVSTISWNSGSIGYADSVKGRFTISRDNAKKSLYLQMNSLRAEDTALYYCAKDIQYGNYYYGMDVWGQGTTVTVSS chain 2: EIVLTQSPATLSLSPGERATLSCRASQSVSSYLAWYQQKPGQAPRLLIYDASNRATGIPARFSGSGSGTDFTLTISSLEPEDFAVYYCQQRSNWPITFGQGTRLEIK", "patients with anti-drug antibodies": "0%"}
{"protein": "unnamed (protein) chain 1: QLQLQESGPGLVKPSETLSLTCTVSGGSINSSSYYWGWLRQSPGKGLEWIGSFFYTGSTYYNPSLRSRLTISVDTSKNQFSLMLSSVTAADTAVYYCARQSTYYYGSGNYYGWFDRWDQGTLVTVSS chain 2: EIVLTQSPATLSLSPGERATLSCRASQSVSSYLAWYQQKPGQAPRLLIYDASNRATGIPARFSGSGSGTDFTLTISSLEPEDFAVYYCQQRSNWPPAFGQGTKVEIK", "patients with anti-drug antibodies": "3.5%"}
{"protein": "unnamed (protein) chain 1: EVQLVQSGAEVKKPGESLKISCKGSGYSFTGYNMNWVRQMPGKGLEWMGNIDPYYGGTTYNRKFKGQVTISADKSISTAYLQWSSLKASDTAMYYCARSVGPFDSWGQGTLVTVSS chain 2: EIVLTQSPATLSLSPGERATLSCRASENVYSYLAWYQQKPGQAPRLLIYFAKTLAEGIPARFSGSGSGTDFTLTISSLEPEDFAVYYCQHHSDNPWTFGQGTKVEIK", "patients with anti-drug antibodies": "5%"}
{"protein": "unnamed (protein) chain 1: QVQLQESGPGLVKPSETLSLTCTVSGGSVSSGDYYWTWIRQSPGKGLEWIGHIYYSGNTNYNPSLKSRLTISIDTSKTQFSLKLSSVTAADTAIYYCVRDRVTGAFDIWGQGTMVTVSS chain 2: DIQMTQSPSSLSASVGDRVTITCQASQDISNYLNWYQQKPGKAPKLLIYDASNLETGVPSRFSGSGSGTDFTFTISSLQPEDIATYFCQHFDHLPLAFGGGTKVEIK", "patients with anti-drug antibodies": "2.8%"}
{"protein": "unnamed (protein) chain 1: QVQLVQSGVEVKKPGASVKVSCKASGYTFTNYYMYWVRQAPGQGLEWMGGINPSNGGTNFNEKFKNRVTLTTDSSTTTAYMELKSLQFDDTAVYYCARRDYRFDMGFDYWGQGTTVTVSS chain 2: EIVLTQSPATLSLSPGERATLSCRASKGVSTSGYSYLHWYQQKPGQAPRLLIYLASYLESGVPARFSGSGSGTDFTLTISSLEPEDFAVYYCQHSRDLPLTFGGGTKVEIK", "patients with anti-drug antibodies": "1.7%"}
{"protein": "unnamed (protein) chain 1: EVQLVESGGGLVQPGGSLRLSCAASGYTFTSYVIHWVRQAPGKGLEWVGYNNPYNAGTNYNEKFKGRFTISSDKSKNTAYLQMNSLRAEDTAVYYCSRPTMLPWFAYWGQGTLVTVSS chain 2: DIQMTQSPSSLSASVGDRVTITCRASQAVSSAVAWYQQKPGKAPKLLIYSASHRYTGVPSRFSGSGSGTDFTLTISSLQPEDFATYYCQESYSTPWTFGQGTKVEIK", "patients with anti-drug antibodies": "4.7%"}
{"protein": "unnamed (protein) chain 1: QVQLQESGPGLVRPSQTLSLTCTASGYTFTDYVIHWVKQPPGRGLEWIGYINPYDDDTTYNQKFKGRVTMLVDTSSNTAYLRLSSVTAEDTAVYYCARRGNSYDGYFDYSMDYWGSGTPVTVSS chain 2: DIQMTQSPSSLSASVGDRVTITCRASQNVGTAVAWLQQTPGKAPKLLIYSASNRYTGVPSRFSGSGSGTDYTFTISSLQPEDIATYYCQQYTNYPMYTFGQGTKVQIK", "patients with anti-drug antibodies": "4.5%"}
